Legend:
Test in all cases: cell-based or functional assay
[1] = biological target: Chymotrypsin having an activity of approx. 40 BTEE units per mg
[2] = biological target: Trypsin having an activity of approx. 10,000 BAEE units per mg
[3] = biological target: Chymotrypsin having an activity of approx. 40 BTEE units per mg; conditions: scale: mg ChymoTrypsin inhibited/1 mgP-ChymoTrypsin Inhibitor
[4] = scale: mg ChymoTrypsin inhibited/1 mgP-ChymoTrypsin Inhibitor

With “SBTI intermediate (crude soybean trypsin inhibitor preparation from soy flour)” the BBI activity, quality control of material loaded on the DEAE column [1] was 0.09 not printed, the Chymotrypsin inhibitor activity of SBTI intermediate (large-scale prep) (mg chymotrypsin inhibited per mg protein) [1] was 0.98 and the KTI activity, quality control of material loaded on the DEAE column [2] was 0.97 not printed. The Trypsin inhibitor activity of SBTI intermediate (large-scale prep) (mg trypsin inhibited per mg protein) [2] was 1.34.
“Bowman-Birk inhibitor (BBI) purified from soy flour” gave a BBI activity, step: BBI After formulation and microfiltration 0.45/0.2 [3] of 0.8, a BBI activity, step: BBI permeate, after 30 Kda UF and additional washes [3] of 0.8 and a BBI activity, step: BBI pool [3] of 0.6. The BBI activity, step: BBI pool after microfiltration 0.45/0.2 [3] was 0.6, the BBI activity, step: Final after lyophilization [3] was 0.9 and the BBI activity, step: Retentate of 5 KDa after 5x concentration [3] was 0.9. It also gave a BBI activity, step: Retentate of 10 Kda after diafiltration [3] of 1, a BBI activity of final product, after the change of the filtration process [1] of 0.8 to 1.4 mg⁻¹ and a BBI activity of final product, before the change of the filtration process [1] of 0.4 to 0.6 mg⁻¹. It also gave a BBI activity, step: Final after lyophilization "as-is" (mg chymotrypsin inhibited per mg solid) [1] of 0.8, a Chymotrypsin inhibitor activity of purified BBI (mg chymotrypsin inhibited per mg) [1] of 1.49 and a BBI activity, step: BBI permeate of 30 Kda. [1, 4] of 0.8. For the same substance, the BBI activity, step: BBI pool [1, 4] was 0.5, the BBI activity, step: Permeate of 5 KDa [1, 4] was 0.13 and the BBI activity, step: Retentate of 5 KDa after 4.5 x concentration [1, 4] was 0.8. It also gave a BBI activity, step: Retentate of 10 Kda after diafiltration [1, 4] of 0.7, a BBI activity, step: Retentate of 30 KDa [1, 4] of 0.13 and a BBI activity, final lyophilized product on the basis of dry weight ([1]; scale: mg chymotrypsin inhibited per mg dry weight) of 0.9. The BBI Activity, large-scale prep ([1]; scale: not given) was 1.49 and the BBI Activity, previous procedure ([1]; scale: not given) was 1.2.
